Reference: paper PMC6391532

What was measured:
Assay in all cases: SEC
[1] = target: DENV2C I88N (dengue virus 2)
[2] = target: DENV2C L50S (dengue virus 2)
[3] = target: DENV2C L54S (dengue virus 2)
[4] = target: DENV2C L81N (dengue virus 2)
[5] = target: dengue virus 2 capsid protein (DENV2C), wild type (dengue virus 2)

DENV2C I88N (natural protein) gave a stoichiometry N [1] of 2.

Work on DENV2C L50S (natural protein) yielded a stoichiometry N [2] of 2.

For DENV2C L54S (natural protein), the stoichiometry N [3] was 2.

Work on DENV2C L81N (natural protein) yielded a stoichiometry N [4] of 2.

Substance “dengue virus 2 capsid protein (DENV2C), wild type (natural protein)” has a stoichiometry N [5] of 2.
